The text below walks through data of patent US20170129954A1 (PROTHENA BIOSCIENCES, published 2017).

Substitutions are numbered along the chain they refer to.

Assay [1] addresses T1, human MCAM (antigen of the BLI kinetics in Example 7) (human, UniProt P43121 24-559, limits assumed).
T1 chain: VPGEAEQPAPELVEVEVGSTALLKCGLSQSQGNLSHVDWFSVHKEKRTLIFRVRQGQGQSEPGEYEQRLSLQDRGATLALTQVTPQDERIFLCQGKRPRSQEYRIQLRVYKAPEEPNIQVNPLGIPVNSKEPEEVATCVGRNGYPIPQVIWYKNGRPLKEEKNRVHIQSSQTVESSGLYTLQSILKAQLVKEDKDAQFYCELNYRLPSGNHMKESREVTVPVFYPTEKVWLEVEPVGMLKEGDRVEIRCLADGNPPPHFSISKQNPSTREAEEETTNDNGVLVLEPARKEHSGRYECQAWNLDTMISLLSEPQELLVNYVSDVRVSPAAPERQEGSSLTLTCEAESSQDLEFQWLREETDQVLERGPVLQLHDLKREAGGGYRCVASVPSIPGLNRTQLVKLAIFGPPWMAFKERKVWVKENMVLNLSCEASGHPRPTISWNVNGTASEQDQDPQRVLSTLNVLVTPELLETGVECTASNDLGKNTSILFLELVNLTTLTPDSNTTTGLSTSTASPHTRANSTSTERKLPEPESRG
Description: BLI, ForteBio Octet QK, apparent KD. From the text:
Apparent ka, apparent kd and apparent KD are binding kinetic parameters obtained using ForteBio assay formats.

The target of assay [2] is T2, MCAM Y318A mutant, purified protein from a stable cell line (human, UniProt P43121 24-559, limits assumed).
T2 chain: T1 chain with Y295A
Description: ForteBio BLI with purified protein. The procedure:
To further confirm the data, stable cell lines expressing I141A, P145V, D216A and Y318A respectively were generated. Fortebio assays were performed with the purified proteins as described above. The control ABX-MA1 antibody bound to wild type MCAM and the MCAM mutants.
On the technique in general: BLI is a label-free optical method that tracks binding on a fibre tip over time.

Assay [3] addresses T3, human MCAM Y318A single mutant displayed on mammalian cells (human, UniProt P43121 24-646).
T3 construct: also called Y318A mutant
T3 chain: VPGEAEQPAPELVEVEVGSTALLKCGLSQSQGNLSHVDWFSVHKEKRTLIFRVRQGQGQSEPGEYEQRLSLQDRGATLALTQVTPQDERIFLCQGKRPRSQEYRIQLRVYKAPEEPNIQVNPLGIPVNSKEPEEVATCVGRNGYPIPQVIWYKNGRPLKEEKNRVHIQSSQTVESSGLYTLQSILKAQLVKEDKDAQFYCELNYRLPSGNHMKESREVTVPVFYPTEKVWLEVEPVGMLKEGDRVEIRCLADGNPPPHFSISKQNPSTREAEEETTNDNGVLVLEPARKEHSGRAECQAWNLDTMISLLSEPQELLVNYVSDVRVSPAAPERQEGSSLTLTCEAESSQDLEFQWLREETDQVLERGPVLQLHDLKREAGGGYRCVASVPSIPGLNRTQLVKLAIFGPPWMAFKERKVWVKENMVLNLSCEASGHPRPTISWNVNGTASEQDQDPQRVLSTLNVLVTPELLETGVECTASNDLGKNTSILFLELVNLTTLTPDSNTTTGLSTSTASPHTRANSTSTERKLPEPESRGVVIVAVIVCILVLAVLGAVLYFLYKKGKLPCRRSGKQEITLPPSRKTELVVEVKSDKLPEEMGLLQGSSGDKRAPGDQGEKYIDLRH
Nature of the assay: FACS on mammalian cells displaying the mutant. From the text: Twenty point mutants based on the structure information and shotgun mutagenesis information were designed and generated.

For assay [4], the target named is T4, human MCAM domain 1 (amino acids 19-129) hFc (human, UniProt P43121 19-129).
T4 construct: One of the various MCAMhFc domains captured on anti-human IgG Fc biosensors; also called MCAMhFc domain; not shown: human IgG Fc (hFc)
T4 sequence: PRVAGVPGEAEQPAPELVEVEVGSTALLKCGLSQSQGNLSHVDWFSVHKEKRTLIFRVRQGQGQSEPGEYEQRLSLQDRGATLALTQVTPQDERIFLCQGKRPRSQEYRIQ
Nature of the assay: ForteBio BLI, MCAMhFc domains on anti-human IgG Fc biosensors. From the text: (§1) The following protocol was used: ForteBio anti-human IgG Fc biosensors were used to immobilize various MCAMhFc domains including full length MCAMhFc protein on to biosensor surface. […] After loading these samples into a black 96 well plate, the Octet Red was programmed as follows: 60 seconds for baseline #1; 180 seconds for loading various domains; 60 seconds for baseline #2; 180 seconds for association of antibody to domain; and 240 seconds for dissociation of antibody from domain.
(§2) 1. MCAMhFc final concentration @ 5 ug/ml [0329] […] 3. ForteBio anti-human IgG Fc Capture (AHC) biosensors for kinetics experiments, cat #18-5060 [0331] 4. Block 96 well plate from Greiner Bio-one, cat #655209 [0332] 5. ForteBio Octet Red machine [0333] 6. Fresh tissue culture medium, DMEM with 20% FCS, was used as buffer for dilution The results from these analyses are as follows.

In assay [5] the target is T5, human MCAM domain 2 (amino acids 139-242) hFc (human, UniProt P43121 139-242).
T5 construct: One of the various MCAMhFc domains captured on anti-human IgG Fc biosensors; also called MCAMhFc domain; not shown: human IgG Fc (hFc)
T5 sequence: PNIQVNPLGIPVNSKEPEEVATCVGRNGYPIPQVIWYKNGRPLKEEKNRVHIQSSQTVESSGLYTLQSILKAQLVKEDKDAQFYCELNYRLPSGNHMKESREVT
Described as above.
Text: as §1, §2

B1: mouse anti-human MCAM monoclonal antibody clone 1749.1.3 (antibody, V domains shown)
VH: DVKLVESGGDLVKPGGSLKLSCAASGFTFSSYIMSWVRQTPEKRLEWVATISSGGSSTYYPDSVKGRFTISRDNAKNTLYLQMSSLKSEDTAMYYCTRDDDYDVKVFAYWGQGTLVTVSA
VL: DIVMSQSPSSLAVSAGEKVTMNCKSSRSLLNSRIRKNYLAWYQQKPGQSPKLLIYWASTRESGVPDRFTGSGSGTDFTLTISSVQAEDLAVYYCKQSYNLLTFGAGTKLELK
notes: Mouse hybridoma monoclonal antibody; also called m1749
Turning to B1, the Kd in assay [1] came out at 0.286 nM. For the same molecule, the binding result is on record as “no binding” in assay [2], “no binding” in assay [3], “no binding (tested: 5 ug/ml)” in assay [4] and “no binding (tested: 5 ug/ml)” in assay [5].
